Non-standard residues stand in square brackets, D forms with d. No end group written: not given here. *: point of attachment. Biotin = O=C1N[C@H]2[C@H](CS[C@H]2CCCCC(=O)*)N1; pY = N[C@@H](Cc1ccc(OP(=O)(O)O)cc1)C(=O)O
Target: thrombin (Homo sapiens, UniProt P00734)
Assay: SPR

## Biotin-DEGDTDL[pY]D[pY][pY]PEEDTEG [GpIbα269-286ppp]
  Kd: 229 nM
